Assay results reported in IntAct's records for PubMed 18385733.

B1: Mediator of RNA polymerase II transcription subunit 15 (Saccharomyces cerevisiae), P19659 (parent)
chain: MSAAPVQDKDTLSNAERAKNVNGLLQVLMDINTLNGGSSDTADKIRIHAKNFEAALFAKSSSKKEYMDSMNEKVAVMRNTYNTRKNAVTAAAANNNIKPVEQHHINNLKNSGNSANNMNVNMNLNPQMFLNQQAQARQQVAQQLRNQQQQQQQQQQQQRRQLTPQQQQLVNQMKVAPIPKQLLQRIPNIPPNINTWQQVTALAQQKLLTPQDMEAAKEVYKIHQQLLFKARLQQQQAQAQAQANNNNNGLPQNGNINNNINIPQQQQMQPPNSSANNNPLQQQSSQNTVPNVLNQINQIFSPEEQRSLLQEAIETCKNFEKTQLGSTMTEPVKQSFIRKYINQKALRKIQALRDVKNNNNANNNGSNLQRAQNVPMNIIQQQQQQNTNNNDTIATSATPNAAAFSQQQNASSKLYQMQQQQQAQAQAQAQAQAQAQAQAQAQAAQAAQAQAQAQAQAQAQAQAQAQAQAQAQAQAQAQAQAHAQHQPSQQPQQAQQQPNPLHGLTPTAKDVEVIKQLSLDASKTNLRLTDVTNSLSNEEKEKIKMKLKQGQKLFVQVSNFAPQVYIITKNENFLKEVFQLRIFVKEILEKCAEGIFVVKLDTVDRLIIKYQKYWESMRIQILRRQAILRQQQQMANNNGNPGTTSTGNNNNIATQQNMQQSLQQMQHLQQLKMQQQQQQQQQQQQQQQQQQQQQQQHIYPSSTPGVANYSAMANAPGNNIPYMNHKNTSSMDFLNSMENTPKVPVSAAATPSLNKTINGKVNGRTKSNTIPVTSIPSTNKKLSISNAASQQPTPRSASNTAKSTPNTNPSPLKTQTKNGTPNPNNMKTVQSPMGAQPSYNSAIIENAFRKEELLLKDLEIRKLEISSRFKHRQEIFKDSPMDLFMSTLGDCLGIKDEEMLTSCTIPKAVVDHINGSGKRKPTKAAQRARDQDSIDISIKDNKLVMKSKFNKSNRSYSIALSNVAAIFKGIGGNFKDLSTLVHSSSPSTSSNMDVGNPRKRKASVLEISPQDSIASVLSPDSNIMSDSKKIKVDSPDDPFMTKSGATTSEKQEVTNEAPFLTSGTSSEQFNVWDWNNWTSAT
partner: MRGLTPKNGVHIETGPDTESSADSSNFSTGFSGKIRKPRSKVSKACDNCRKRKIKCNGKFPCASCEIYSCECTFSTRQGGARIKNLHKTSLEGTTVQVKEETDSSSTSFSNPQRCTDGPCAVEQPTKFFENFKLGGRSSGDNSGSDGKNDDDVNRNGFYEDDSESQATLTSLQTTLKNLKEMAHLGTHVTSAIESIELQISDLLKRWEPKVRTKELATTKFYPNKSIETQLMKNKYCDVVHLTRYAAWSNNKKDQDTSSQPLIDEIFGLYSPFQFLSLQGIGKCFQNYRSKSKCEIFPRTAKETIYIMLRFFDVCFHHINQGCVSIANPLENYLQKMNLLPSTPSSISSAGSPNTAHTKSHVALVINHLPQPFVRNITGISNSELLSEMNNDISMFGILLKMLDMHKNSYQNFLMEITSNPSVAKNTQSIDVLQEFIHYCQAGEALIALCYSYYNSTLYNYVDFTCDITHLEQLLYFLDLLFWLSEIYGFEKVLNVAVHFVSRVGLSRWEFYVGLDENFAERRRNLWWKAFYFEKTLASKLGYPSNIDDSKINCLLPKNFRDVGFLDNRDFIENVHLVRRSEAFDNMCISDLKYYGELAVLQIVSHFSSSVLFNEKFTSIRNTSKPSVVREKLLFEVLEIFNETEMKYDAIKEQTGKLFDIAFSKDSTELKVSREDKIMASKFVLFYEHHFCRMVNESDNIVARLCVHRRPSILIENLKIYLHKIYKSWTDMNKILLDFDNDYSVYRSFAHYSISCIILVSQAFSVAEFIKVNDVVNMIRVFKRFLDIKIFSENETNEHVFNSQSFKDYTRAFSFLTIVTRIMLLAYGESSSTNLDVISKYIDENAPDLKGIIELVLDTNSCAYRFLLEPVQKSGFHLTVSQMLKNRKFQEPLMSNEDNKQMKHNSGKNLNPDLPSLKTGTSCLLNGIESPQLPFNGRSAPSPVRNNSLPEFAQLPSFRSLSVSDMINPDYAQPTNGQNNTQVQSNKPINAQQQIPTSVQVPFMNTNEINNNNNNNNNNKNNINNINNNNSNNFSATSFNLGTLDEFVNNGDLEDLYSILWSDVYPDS

Variants of: B1
Conditions: with pdr1_yeast PDR1, P12383

effect of a mutation on the interaction | Variant
disrupting interaction | M77E
disrupting interaction | R78L

Second part, the variant before the results:

Variant | effect of a mutation on the interaction
V27D | disrupting interaction
V76D | disrupting interaction
S69D | disrupting interaction
K63Q | disrupting interaction
